These results are taken from US20240124576A1 (SHANGHAI JEMINCARE PHARMACEUTICAL, published 2024).

Where a chain is given by its changes, count along the chain named.

Test [1] has as its target T1, biotinylated human Siglec-15 protein (Acrobiosystems, Cat. No. SG5-H82E9) (human, UniProt Q6ZMC9 20-263, biotinylated).
T1 construct: Bought reagent; also called HS-15 Biotin; human S-15 Biotin
T1 sequence (looked up): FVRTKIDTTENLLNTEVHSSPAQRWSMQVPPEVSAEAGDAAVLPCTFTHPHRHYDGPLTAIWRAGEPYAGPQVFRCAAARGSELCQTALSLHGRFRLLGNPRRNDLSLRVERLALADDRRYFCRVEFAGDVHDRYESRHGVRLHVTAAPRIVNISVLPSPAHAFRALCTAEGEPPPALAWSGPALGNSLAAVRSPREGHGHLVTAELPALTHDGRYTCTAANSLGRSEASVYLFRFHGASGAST
Briefly: flow cytometry of yeast-displayed Fab, 1 nM HS-15 Biotin 30 min, 2 h wash. The protocol: After sequencing analysis, the single clone with single sequence was identified by flow cytometry staining, incubated with 1 nM HS-15 Biotin for 30 min, respectively, and washed with 1 mL 1×PBSA for 2 h at room temperature; after flow cytometry analysis, the fluorescence intensity of different clones binding to antigen was compared.
Background: A flow cytometer gives signals particle by particle.

The target in test [2] is T2, human Siglec-15 (Acro, Cat. No. SG5-H52H3) (human, UniProt Q6ZMC9 20-263).
T2 construct: Bought reagent used as the analyte in the Octet assay; also called antigen
T2 sequence (looked up): T1 sequence (looked up)
Briefly: BLI (Octet RED96e), antibody captured on AHC sensor, 30 nM antigen, 1:1 fit; first assay. How it is done: (§1) Affinity of Siglec-15 binding protein of the present application to human Siglec-15 (Acro, Cat. No.: SG5-H52H3) was determined using Octet RED96e (Fortebio), both of the antigen and the Siglec-15 binding protein of the present application were diluted with 1×PBST (1×PBS: Sangon, B548117-0500; 0.02% Tween 20: Sigma-aldrich, P1379). The antigen is used at a concentration of 30 nM and the Siglec-15 binding protein of the present application is used at a concentration of 33.3 nM.
(§2) First, a sample was added to a 96-well plate (Greiner bio-one, 655209) in a system of 200 μL/well. Software parameters were then set, the plate temperature was set to 30° C., and the frequency at which the standard kinetic signal was collected was 5.0 Hz. Next, the AHC sensor (Fortébio, Cat. No.: 18-0015) was pre-wetted with 1×PBST for 10 min, then the sample was loaded on the machine for detection, with each cycle containing the following steps: 1) immersing the sample in buffer for 60 s; 2) detecting whether the antigen has non-specific binding to the sensor; 3) regenerating in a 10 mM glycine solution at pH 1.7; 4) immersing in buffer for 60 s; 5) immobilizing the Siglec-15 binding protein of the present application on the sensor for 20 s; 6) immersing the sensor in buffer for 180 s; 7) binding the antigen to the Siglec-15 binding protein of the present application for 180 s; 8) dissociating the antigen with Siglec-15 binding protein of the present application for 10 min; and 9) regenerating the sensor.
(§3) The equilibrium dissociation constant (KD) of the Siglec-15 binding protein of the present application was calculated by determining the binding rate constant (kon) and dissociation rate constant (kdis) of the antigen-Siglec-15 binding protein of the present application in a 1:1 binding manner using Data Analysis 12.0 software fromx Fortebio.

Test [3] has as its target T3, extracellular domain of monkey Siglec-15 on monkey S15ECD-293T cells (monkey).
T3 chain: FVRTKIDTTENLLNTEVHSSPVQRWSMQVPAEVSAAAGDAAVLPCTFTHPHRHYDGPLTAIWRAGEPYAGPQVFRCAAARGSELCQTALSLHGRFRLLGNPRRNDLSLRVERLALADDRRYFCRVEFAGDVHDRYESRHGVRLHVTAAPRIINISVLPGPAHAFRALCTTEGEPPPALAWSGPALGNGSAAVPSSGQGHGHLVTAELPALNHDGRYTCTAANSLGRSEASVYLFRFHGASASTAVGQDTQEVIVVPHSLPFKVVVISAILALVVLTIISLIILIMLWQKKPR
Briefly: flow cytometry on monkey S15ECD-293T cells, Alexa 488 secondary antibody.

The target in test [4] is T4, extracellular domain of human Siglec-15 with PDGFR transmembrane domain on human S15ECD-293T cells (human, UniProt Q6ZMC9 20-263; P09619 513-561).
T4 construct: range 20-263;range 513-561; also called human Siglec-15 on the surface of a cell
As to the kind of experiment: flow cytometry on human S15ECD-293T cells, Alexa 488 secondary antibody; Ab9 on human S15ECD-293T cells. The text has this:
(§4) The purified Siglec-15 binding protein of the present application was identified by flow cytometry for its function to bind to human S15ECD-293T cells of the present application. Human S15ECD-293T cells prepared by the methods of the present application can be expanded to 90% confluence in 15 cm cell culture dishes, media were pipetted completely, the cells were washed once with PBS buffer (Thermo Fisher, 10010049), then treated with enzyme-free cell dissociation buffer (Versene solution, Thermo Fisher, 15040066) and harvested. The cells were washed twice with PBS buffer and counted, the desired quantity of cells was removed for centrifugation, the cells were resuspended to 2×10^6 cells/ml with FACS buffer (PBS with 2% FBS). After incubation at room temperature for 15 min, the cell suspension was added to a U-shaped 96-well plate (Corning, 3798) at 50 μL/well. The Siglec-15 binding proteins of the present application were serially diluted in FACS buffer, the dilution was added to the above 96-well plate at 50 μL/well and incubated at 4° C. for 1 h. […] The cells were resuspended in 30 μL/well FACS buffer, and detected and analyzed by flow cytometry intellycite plus (Sartorius). […]

Test [5] concerns the target T2, human Siglec-15 (Acro, Cat. No. …). As to the kind of experiment: BLI (Octet RED96e), antibody captured on AHC sensor, 30 nM antigen, 1:1 fit; second assay. The arrangement: Response value: unit not given here. The protocol:
as §1, §2, §3
Background: In BLI a coated tip is dipped into the sample, and binding shifts an interference pattern.

Test [6] has the same target. As to the kind of experiment: BLI (Octet RED96e), antibody captured on AHC sensor, 30 nM antigen, 1:1 fit; third assay. The protocol: as §1, §2, §3
In test [7] the target is T5, full length murine Siglec-15 on murine S15-CT26 cells (murine).
T5 construct: whole, on cells; also called murine Siglec-15 on the surface of a cell
Briefly: flow cytometry on murine S15-CT26 cells, Alexa 488 secondary antibody.

For test [8], the target named is T4, extracellular domain of human Siglec-15 …. Briefly: flow cytometry on human S15ECD-293T cells, Alexa 488 secondary antibody; Ab15 on human S15ECD-293T cells.
Text: as §4

B1: Ab13 (clone YC45H4) displayed on yeast in the form of Fab (Fab, V domains shown)
VH: EVQLLESGGGLVQPGGSLRLSCAASGFTFSSYAMSWVRQAPGKGLEWVSTITGGGESTYYADSVKGRFTISRDNSKNTLYLQMNSLRAEDTAVYYCAKAIGSSWYSDAFDLWGQGTMVTVSS
VL: DIQMTQSPSSVSASVGDRVTITCRASQDISSWLAWYQQKPGKAPKLLIYVASFEHRGVPSRFSGSGSGTDFTLTISSLQPEDFATYYCQQSYSIPYTFGQGTKLEIK
Take B1: in test [1], the “Binding MFI” value stood at 109 MFI and the “Binding force (Displaying MFI/Binding MFI) *10000” value stood at 465.

B2: Ab0, purified Siglec-15 binding protein in the form of IgG1 (antibody, V domains shown)
VH: B1 VH with T52S, E56G
VL: DIQMTQSPSSVSASVGDRVTITCRASQDISSWLAWYQQKPGKAPKLLIYVASSLQSGVPSRFSGSGSGTDFTLTISSLQPEDFATYYCQQSYSIPYTFGQGTKLEIKR
The term Kd denotes the concentration at which binding is half-saturated. One may read the koff as the rate constant with which the complex falls apart. In general, kon refers to a measure of how fast the partners come together. For B2, in test [2], the Kd is 0.109 nM, the koff turned out to be 3.24e-05 s⁻¹ and the kon was 298000 M⁻¹ s⁻¹.

B3: Ab9, purified Siglec-15 binding protein in the form of IgG1 (antibody, V domains shown)
VH: B1 VH with T52S, E56G
VL: B2 VL with S31D
notes: Expressed in ExpiCHO cells in the form of IgG1
In general, EC50 refers to the concentration at which the effect is half-maximal. For the molecule B3, the EC50 in test [3] was determined as 0.922 nM. Besides, the EC50 in test [4] worked out at 1.52 nM. In addition, in test [5], the Kd stood at 0.0873 nM, the Response value came out at 0.259, the koff stood at 3.88e-05 s⁻¹ and the kon was determined as 445000 M⁻¹ s⁻¹. In test [6], this molecule displayed a Kd of 0.0691 nM, a koff of 3.59e-05 s⁻¹ and a kon of 519000 M⁻¹ s⁻¹. Also, in test [7], it took 3.25 nM to reach a half-maximal effect (EC50).

B4: Ab15, purified Siglec-15 binding protein in the form of IgG1 (antibody, V domains shown)
VH: B1 VH
VL: B2 VL with S53Y, L54I, Q55H
notes: as for B3
Turning to B4, a half-maximal response in test [3] (EC50) required 0.475 nM. In test [5], this molecule returned a Kd of 0.073 nM, a Response value of 0.361, a dissociation rate constant (koff) of 3.93e-05 s⁻¹ and a kon of 538000 M⁻¹ s⁻¹. In test [6], this molecule showed a Kd of 0.0916 nM, an off-rate (koff) of 4.35e-05 s⁻¹ and a kon of 475000 M⁻¹ s⁻¹. Besides, the EC50 in test [7] was 1.83 nM. This molecule gave an EC50 in test [8] of 0.475 nM.

B5: Ab15 (clone YC44F5) displayed on yeast in the form of Fab (Fab, V domains shown)
VH: B1 VH
VL: B1 VL with F53Y, E54I, R56S
As for B5, in test [1], the “Binding MFI” value stood at 105 MFI and the “Binding force (Displaying MFI/Binding MFI) *10000” value is 409.
